{"source": "paper PMC2114503", "experiment_in_all_cases": "co-sedimentation", "key": {"[1]": {"biological_target": "rabbit skeletal muscle actin (rabbit) (UniProt P68135)", "conditions": "scale: molecules of actin per molecule of the 30,000-D protein"}, "[2]": {"biological_target": "rabbit skeletal muscle actin (rabbit) (UniProt P68135)"}, "[3]": {"biological_target": "rabbit skeletal muscle actin (rabbit) (UniProt P68135)", "remark": "listed apart in the source"}, "[4]": {"biological_target": "rabbit skeletal muscle actin (rabbit) (UniProt P68135)", "remark": "listed apart in the source"}, "[5]": {"biological_target": "rabbit skeletal muscle actin (rabbit) (UniProt P68135)", "remark": "listed apart in the source"}}, "note": "Where two headings read alike, the source gives them in different places."}
{"substance": "Dictyostelium discoideum 30,000-D actin-binding protein (natural protein)", "values": [{"measurement": "stoichiometry N", "setting": "[1]", "result": 10.3}, {"measurement": "fraction of the 30,000-D protein co-sedimenting with actin", "setting": "[2]", "result": 73, "unit": "%"}, {"measurement": "fraction of the 30,000-D protein co-sedimenting with actin", "setting": "[3]", "result": 29, "unit": "%"}, {"measurement": "fraction of the 30,000-D protein co-sedimenting with actin", "setting": "[4]", "result": 14, "unit": "%"}, {"measurement": "fraction of the 30,000-D protein co-sedimenting with actin", "setting": "[5]", "result": 99, "unit": "%"}, {"measurement": "stoichiometry N", "setting": "[5]; scale: molecules of actin per molecule of the 30,000-D protein", "result": 9.5}]}
